Laboratory results reported in patent US7964700B2, “Inhibitors of Taspase1 protease activity” (Dana-Farber Cancer Institute, Inc., priority 2003, dated 2011).
No end group written: not given here.

Molecular target: T1, rTaspase1 (Homo sapiens, UniProt Q9H6P5)
T1 construct: Full-length Taspase1 was cloned from 293T cell cDNA and inserted into the Myc/Flag doubly-tagged expression vector; made in house; host or cells: E. coli BL21(DE3)
T1 sequence (Q9H6P5 1-233): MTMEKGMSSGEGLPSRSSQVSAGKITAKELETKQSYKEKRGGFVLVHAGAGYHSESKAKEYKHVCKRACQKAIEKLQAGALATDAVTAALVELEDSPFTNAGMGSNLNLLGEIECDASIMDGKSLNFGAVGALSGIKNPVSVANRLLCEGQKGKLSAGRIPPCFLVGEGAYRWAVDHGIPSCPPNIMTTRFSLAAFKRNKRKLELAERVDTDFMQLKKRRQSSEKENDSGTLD
T1 sequence (Q9H6P5 234-420): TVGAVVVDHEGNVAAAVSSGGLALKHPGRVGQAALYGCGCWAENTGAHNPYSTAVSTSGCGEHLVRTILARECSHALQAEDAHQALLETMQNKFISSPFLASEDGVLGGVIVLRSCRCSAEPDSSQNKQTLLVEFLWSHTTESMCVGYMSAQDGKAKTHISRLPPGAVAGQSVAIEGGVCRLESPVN
Assay: In vitro cleavage assay: labeled MLL substrate incubated with rTaspase1 and peptide inhibitor, SDS-PAGE and autoradiography
Type: biochemical
Details: for inhibitory effect on the rTaspase1 enzyme (MLL substrate cleavage) / dose response: effectiveness of polypeptide-aldehyde Taspase1 inhibitors: 5 ng rTaspase1, 20 minutes; for inhibitory effect on the rTaspase1 enzyme (MLL substrate cleavage): then labeled substrate 60 minutes at 37° C.; for dose response: effectiveness of polypeptide-aldehyde Taspase1 inhibitors: concentrations of FIGS. 11A-11C
Description: Polypeptides of varying length (i.e., 4 to 7 amino acids in length) were prepared to identify preferred lengths and sequences of polypeptide inhibitors of Taspase1. The polypeptide inhibitors were based on the amino acid sequence that includes a upstream portion of the CS2 cleavage site of MLL as well as a portion of the CS2 cleavage site (See FIG. 1B and FIG. 9). The peptide inhibitors were purchased from Tufts University Peptide Core Facility and AnaSpec Inc. of San Jose, Calif. 1 mM of each of the inhibitors was incubated with 5 ng of rTaspase1 for 20 minutes before adding labeled substrate for another 60 minutes at 37° C. The results were analyzed by SDS-PAGE followed by autoradiography.
In order to determine a preferred length of polypeptide inhibitors of Taspase1, dose responses were tested for a six amino acid polypeptide inhibitor (KISQLA) (SEQ ID NO:8) and a five amino acid polypeptide inhibitor (ISQLA) (SEQ ID NO:7). The polypeptides were incubated at the concentrations depicted in FIG. 10 with 5 ng of rTaspase1 for 20 minutes before adding labeled MLL substrate for another 60 minutes at 37° C. The results were analyzed by SDS-PAGE followed by autoradiography.
Three modified polypeptide inhibitors were prepared wherein the carboxy terminals of the polypeptides were replaced with an aldehyde (SQLA-aldehyde (SEQ ID NO:17), SQLD-aldehyde (SEQ ID NO:9), and KISQLD-aldehyde (SEQ ID NO:11)). Chemical syntheses of these modified polypeptides is well known to one of skill in the art, and the modified polypeptides are also are available commercially at AnaSpec Inc. of San Jose, Calif. The polypeptides were incubated in the concentrations depicted in FIGS. 11A-11C with 5 ng of rTaspase1 for 20 minutes before adding labeled MLL substrate for another 60 minutes at 37° C. The results were analyzed by SDS-PAGE followed by autoradiography. […] Accordingly, the modified polypeptides can keep the active site of the enzyme occupied for a greater length of time, blocking entrance of the MLL substrate from entering the active site as required for cleavage. […] (See FIG. 11C.).
^35S-methionine labeled MLL substrate was incubated with 2 μl of indicated subcellular fractions or specified amounts of rTaspase1 in cleavage buffer (100 mM HEPES [pH 7.9], 5 mM MgCl2, 20 mM KCl, 5 mM DTT, and 10% sucrose) for 1 hour at 37° C. or indicated periods of time. Protease inhibitors utilized include 8.5 μM Phosphoramidon, 100 μM TLCK, 100 μM TPCK, 5 mM Iodoacetamide, 5 mM N-Ethylmaleimide, 0.3 μM Aprotinin, 100 μM Leupeptin, 1 μM Pepstatin, 1× Complete protease inhibitor cocktail (Roche), 100 μM Antipain, 100 μM APMSF, 10 μM Bestatin, 25 μM ALLN, 100 μM Chymostatin, […] E-64, 5 mM EDTA, 1 mM PMSF, 1 mM EGTA, 50 μM BAF (Boc-Aspartyl-FMK), and 50 μM z-VAD (z-VAD-FMK).

[1] = then labeled MLL substrate 60 minutes at 37° C.

Ile-Ser-Gln-Leu-Ala (ISQLA; listed as Homo sapiens)
dose response: effectiveness as Taspase1 inhibitor, five versus six amino acid polypeptide (concentrations of FIG. 10, 5 ng rTaspase1, 20 minutes, then labeled MLL substrate 60 minutes at 37° C.): more effective inhibitor at lower concentrations than the corresponding six amino acid polypeptide

Ile-Ser-Gln-Leu-Asp (ISQLD; listed as Homo sapiens)
inhibitory effect on the rTaspase1 enzyme (MLL substrate cleavage) (1 mM inhibitor, FIG. 9): little inhibitory effect

KISQA: polypeptide with P1 alanine and omission of the leucine residue at P2 (listed as Homo sapiens)
inhibitory effect on the rTaspase1 enzyme (MLL substrate cleavage) (1 mM inhibitor, FIG. 9): inhibitory effect was observed | inhibition of rTaspase1 relative to ISQLA (P2 leucine omitted) (1 mM inhibitor, 5 ng rTaspase1, FIG. 9): significantly decreased inhibition

KISQLA
inhibitory effect on the rTaspase1 enzyme (MLL substrate cleavage) (1 mM inhibitor, FIG. 9): inhibitory effect was observed

KISQLD: six amino acid polypeptide based on the sequence upstream of the CS2 cleavage site of MLL (listed as Homo sapiens)
inhibitory effect on the rTaspase1 enzyme (MLL substrate cleavage) (1 mM inhibitor, FIG. 9): little inhibitory effect

KISdQLA: polypeptide where the P1 aspartate residue was substituted for an alanine residue (KISDQLA; not fully specified (residue 4); printed as KISdQLA; listed as Homo sapiens)
inhibitory effect on the rTaspase1 enzyme (MLL substrate cleavage) (1 mM inhibitor, FIG. 9): inhibitory effect was observed

Lys-Ile-Ser-Gln-Leu-Asp-aldehyde (KISQLD-aldehyde)
dose response: effectiveness of polypeptide-aldehyde Taspase1 inhibitors [1]: more effective than both of the four amino acid aldehyde

SQLD: four amino acid polypeptide based on the sequence upstream of the CS2 cleavage site of MLL (listed as Homo sapiens)
inhibitory effect on the rTaspase1 enzyme (MLL substrate cleavage) (1 mM inhibitor, FIG. 9): little inhibitory effect

Ser-Gln-Leu-Asp-aldehyde (SQLD-aldehyde)
dose response: effectiveness of polypeptide-aldehyde Taspase1 inhibitors [1]: more effective inhibitor than the SQLA-aldehyde
